Assay results published in publication PMC2768832 (The Journal of Cell Biology, 2009).

Biological target: p97/VCP-His, recombinant full-length mouse p97/VCP (mouse, UniProt Q01853 1-806)
Test: pull-down

Sequence of p97/VCP-His, recombinant full-length mouse p97/VCP (Q01853 whole entry): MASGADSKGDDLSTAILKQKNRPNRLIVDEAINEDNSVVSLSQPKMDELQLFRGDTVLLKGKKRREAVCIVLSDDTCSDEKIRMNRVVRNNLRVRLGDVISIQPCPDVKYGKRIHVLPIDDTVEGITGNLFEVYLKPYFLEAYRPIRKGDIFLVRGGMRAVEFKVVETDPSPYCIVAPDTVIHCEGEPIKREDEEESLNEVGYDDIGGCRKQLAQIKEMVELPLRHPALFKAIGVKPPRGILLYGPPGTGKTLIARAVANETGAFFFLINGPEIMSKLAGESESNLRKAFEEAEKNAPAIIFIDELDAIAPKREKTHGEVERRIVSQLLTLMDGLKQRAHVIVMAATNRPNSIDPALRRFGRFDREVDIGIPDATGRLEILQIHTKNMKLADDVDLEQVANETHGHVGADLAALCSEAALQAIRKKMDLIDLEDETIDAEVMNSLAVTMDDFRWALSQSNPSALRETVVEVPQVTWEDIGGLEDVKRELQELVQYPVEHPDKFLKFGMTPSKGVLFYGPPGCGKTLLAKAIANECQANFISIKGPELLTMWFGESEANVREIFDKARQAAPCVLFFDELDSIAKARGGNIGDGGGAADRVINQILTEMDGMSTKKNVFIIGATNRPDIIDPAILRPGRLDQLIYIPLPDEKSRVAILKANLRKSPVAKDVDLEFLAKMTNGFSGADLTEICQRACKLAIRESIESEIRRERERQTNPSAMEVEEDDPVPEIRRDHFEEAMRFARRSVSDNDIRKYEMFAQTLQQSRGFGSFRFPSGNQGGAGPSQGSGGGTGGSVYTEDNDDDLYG

binding result: binds
B1: erasin-His, recombinant full-length human erasin (natural protein)
chain: MLWFQGAIPAAIATAKRSGAVFVVFVAGDDEQSTQMAASWEDDKVTEASSNSFVAIKIDTKSEACLQFSQIYPVVCVPSSFFIGDSGIPLEVIAGSVSADELVTRIHKVRQMHLLKSETSVANGSQSESSVSTPSASFEPNNTCENSQSRNAELCEIPPTSDTKSDTATGGESAGHATSSQEPSGCSDQRPAEDLNIRVERLTKKLEERREEKRKEEEQREIKKEIERRKTGKEMLDYKRKQEEELTKRMLEERNREKAEDRAARERIKQQIALDRAERAARFAKTKEEVEAAKAAALLAKQAEMEVKRESYARERSTVARIQFRLPDGSSFTNQFPSDAPLEEARQFAAQTVGNTYGNFSLATMFPRREFTKEDYKKKLLDLELAPSASVVLLPAGRPTASIVHSSSGDIWTLLGTVLYPFLAIWRLISNFLFSNPPPTQTSVRVTSSEPPNPASSSKSEKREPVRKRVLEKRGDDFKKEGKIYRLRTQDDGEDENNTWNGNSTQQM
